# In PMC4477937, “Alpha-2-Macroglobulin Is Acutely Sensitive to Freezing and Lyophilization: Implications for Structural and Functional Studies” (PLoS ONE, 2015):
# Legend:
# [1] = molecular target: the molecule itself; test: native gel or EMSA; native PAGE, NuPAGE 3–8% Tris-acetate, Tris-glycine running buffer, stained with InstantBlue; purified α2M after storage (4°C for months, -20°C, rapid freezing, lyophilization)
# [2] = molecular target: Creatine phosphokinase (UniProt P00563 1-381); test: cell-based or functional assay
# Sequence of Creatine phosphokinase (P00563 whole entry): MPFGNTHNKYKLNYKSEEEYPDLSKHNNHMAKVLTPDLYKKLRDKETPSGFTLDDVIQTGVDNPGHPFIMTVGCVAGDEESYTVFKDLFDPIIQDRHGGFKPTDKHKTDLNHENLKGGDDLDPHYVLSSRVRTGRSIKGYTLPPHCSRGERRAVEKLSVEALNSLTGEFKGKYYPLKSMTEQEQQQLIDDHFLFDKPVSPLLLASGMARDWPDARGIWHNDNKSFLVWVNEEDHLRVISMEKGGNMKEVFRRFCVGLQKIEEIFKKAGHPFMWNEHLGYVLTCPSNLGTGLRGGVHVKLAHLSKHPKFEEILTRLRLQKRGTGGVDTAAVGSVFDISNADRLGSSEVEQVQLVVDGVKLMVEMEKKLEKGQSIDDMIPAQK
binder,measurement,setting,value
"Alpha-2-macroglobulin (natural protein, human, UniProt P01023 24-1474, looked up, alpha-2-macroglobulin, human, from blood plasma; 720 kDa homotetramer of four 180 kDa subunits, paired by disulfide bonds into dimers; Storage changes the conformation (native, transformed, dimers, higher molecular weight species); also called α2M; native α2M; source: purified from human blood plasma (Zn-charged HiTrap chelating column, Sephacryl S-300 gel filtration)) SVSGKPQYMVLVPSLLHTETTEKGCVLLSYLNETVTVSASLESVRGNRSLFTDLEAENDVLHCVAFAVPKSSSNEEVMFLTVQVKGPTQEFKKRTTVMVKNEDSLVFVQTDKSIYKPGQTVKFRVVSMDENFHPLNELIPLVYIQDPKGNRIAQWQSFQLEGGLKQFSFPLSSEPFQGSYKVVVQKKSGGRTEHPFTVEEFVLPKFEVQVTVPKIITILEEEMNVSVCGLYTYGKPVPGHVTVSICRKYSDASDCHGEDSQAFCEKFSGQLNSHGCFYQQVKTKVFQLKRKEYEMKLHTEAQIQEEGTVVELTGRQSSEITRTITKLSFVKVDSHFRQGIPFFGQVRLVDGKGVPIPNKVIFIRGNEANYYSNATTDEHGLVQFSINTTNVMGTSLTVRVNYKDRSPCYGYQWVSEEHEEAHHTAYLVFSPSKSFVHLEPMSHELPCGHTQTVQAHYILNGGTLLGLKKLSFYYLIMAKGGIVRTGTHGLLVKQEDMKGHFSISIPVKSDIAPVARLLIYAVLPTGDVIGDSAKYDVENCLANKVDLSFSPSQSLPASHAHLRVTAAPQSVCALRAVDQSVLLMKPDAELSASSVYNLLPEKDLTGFPGPLNDQDNEDCINRHNVYINGITYTPVSSTNEKDMYSFLEDMGLKAFTNSKIRKPKMCPQLQQYEMHGPEGLRVGFYESDVMGRGHARLVHVEEPHTETVRKYFPETWIWDLVVVNSAGVAEVGVTVPDTITEWKAGAFCLSEDAGLGISSTASLRAFQPFFVELTMPYSVIRGEAFTLKATVLNYLPKCIRVSVQLEASPAFLAVPVEKEQAPHCICANGRQTVSWAVTPKSLGNVNFTVSAEALESQELCGTEVPSVPEHGRKDTVIKPLLVEPEGLEKETTFNSLLCPSGGEVSEELSLKLPPNVVEESARASVSVLGDILGSAMQNTQNLLQMPYGCGEQNMVLFAPNIYVLDYLNETQQLTPEIKSKAIGYLNTGYQRQLNYKHYDGSYSTFGERYGRNQGNTWLTAFVLKTFAQARAYIFIDEAHITQALIWLSQRQKDNGCFRSSGSLLNNAIKGGVEDEVTLSAYITIALLEIPLTVTHPVVRNALFCLESAWKTAQEGDHGSHVYTKALLAYAFALAGNQDKRKEVLKSLNEEAVKKDNSVHWERPQKPKAPVGHFYEPQAPSAEVEMTSYVLLAYLTAQPAPTSEDLTSATNIVKWITKQQNAQGGFSSTQDTVVALHALSKYGAATFTRTGKAAQVTIQSSGTFSSKFQVDNNNRLLLQQVSLPELPGEYSMKVTGEGCVYLQTSLKYNILPEKEEFPFALGVQTLPQTCDEPKAHTSFQISLSVSYTGSRSASNMAIVDVKMVSGFIPLKPTVKMLERSNHVSRTEVSSNHVLIYLDKVSNQTLSLFFTVLQDVPVRDLKPAIVKVYDYYETDEFAIAEYNAPCSKDLGNA",binding result,[1],binds
same,decrease in turbidity (absorbance at 595 nm) of CPK (5 μM) at 43°C over 8 hrs with α2M at a molar ratio of α2M-to-CPK of 1:15; α2M rapidly frozen in liquid nitrogen and stored at -20°C for 1 month,[2],~50%
